Experimental data from article PMC9482650, “Quantitative fragmentomics allow affinity mapping of interactomes” (Nature Communications, 2022).

What was measured:
Test in all cases: holdup assay
Design in all cases: key: below the threshold = too weak to quantify, mostly under pKd 3.1 to 4
Settings in all cases: plain residues with an end cap or a label only (N-terminal biotin on a linker: ttds)
APBA2_2, Q99767 = target: T1, APBA2_2, Q99767
T1 sequence (Q99767 654-744, limits assumed, looked up): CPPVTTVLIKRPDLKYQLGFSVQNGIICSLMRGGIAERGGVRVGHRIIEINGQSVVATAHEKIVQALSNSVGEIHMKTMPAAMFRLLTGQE

CASK, O14936 = target: CASK, O14936
Chain of CASK, O14936 (O14936 487-570): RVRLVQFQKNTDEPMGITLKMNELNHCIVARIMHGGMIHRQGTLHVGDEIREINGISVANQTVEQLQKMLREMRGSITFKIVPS

DFNB31_2, Q9P202 = target: T2, DFNB31_2, Q9P202
T2 sequence (Q9P202 274-371, limits assumed, looked up): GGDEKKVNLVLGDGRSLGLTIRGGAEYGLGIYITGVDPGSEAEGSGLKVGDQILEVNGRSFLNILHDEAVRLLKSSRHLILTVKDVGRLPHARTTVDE

DLG3_1, Q92796 = target: T3, DLG3_1, Q92796
T3 sequence (Q92796 125-227, limits assumed, looked up): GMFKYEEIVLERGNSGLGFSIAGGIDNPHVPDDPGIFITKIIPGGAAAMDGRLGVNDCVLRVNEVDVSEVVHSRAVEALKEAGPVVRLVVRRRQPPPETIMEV

DLG4_3, P78352 = target: DLG4_3, P78352
Chain of DLG4_3, P78352 (P78352 306-403): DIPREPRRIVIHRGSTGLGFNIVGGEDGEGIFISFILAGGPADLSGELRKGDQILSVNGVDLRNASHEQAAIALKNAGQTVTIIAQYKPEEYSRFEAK

FRMPD2_3, Q68DX3 = target: FRMPD2_3, Q68DX3
Chain of FRMPD2_3, Q68DX3 (Q68DX3 1073-1166): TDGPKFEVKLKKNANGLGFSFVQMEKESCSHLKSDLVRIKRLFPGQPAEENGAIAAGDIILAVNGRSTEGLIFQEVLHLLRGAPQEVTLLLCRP

GORASP1, Q9BQQ3 = target: GORASP1, Q9BQQ3
Chain of GORASP1, Q9BQQ3 (Q9BQQ3 1-208): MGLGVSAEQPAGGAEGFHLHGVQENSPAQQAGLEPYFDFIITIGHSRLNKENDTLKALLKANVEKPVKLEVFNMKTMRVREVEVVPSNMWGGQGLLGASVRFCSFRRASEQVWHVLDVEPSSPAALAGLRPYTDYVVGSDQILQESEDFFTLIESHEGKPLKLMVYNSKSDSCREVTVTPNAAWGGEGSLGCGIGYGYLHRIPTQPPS

GORASP2, Q9H8Y8 = target: GORASP2, Q9H8Y8
GRID2IP_1, A4D2P6 = target: GRID2IP_1, A4D2P6
Chain of GRID2IP_1, A4D2P6 (A4D2P6 1-87): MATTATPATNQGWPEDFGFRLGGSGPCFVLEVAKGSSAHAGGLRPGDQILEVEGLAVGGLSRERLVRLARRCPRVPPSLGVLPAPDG

GRIP1_3, Q9Y3R0 = target: T4, GRIP1_3, Q9Y3R0
T4 sequence (Q9Y3R0 247-346, limits assumed, looked up): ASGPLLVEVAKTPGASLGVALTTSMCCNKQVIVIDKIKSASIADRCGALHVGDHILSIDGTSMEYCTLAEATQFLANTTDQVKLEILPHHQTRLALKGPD

GRIP2_3, Q9C0E4 = target: GRIP2_3, Q9C0E4
Chain of GRIP2_3, Q9C0E4 (Q9C0E4 238-339): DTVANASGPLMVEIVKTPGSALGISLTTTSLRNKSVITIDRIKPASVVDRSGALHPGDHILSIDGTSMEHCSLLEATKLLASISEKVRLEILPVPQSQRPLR

GRIP2_5, Q9C0E4 = target: GRIP2_5, Q9C0E4
Chain of GRIP2_5, Q9C0E4 (Q9C0E4 544-642): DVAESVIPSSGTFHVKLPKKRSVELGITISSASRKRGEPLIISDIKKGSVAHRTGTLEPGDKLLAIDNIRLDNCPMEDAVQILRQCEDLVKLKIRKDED

HTRA2, O43464 = target: HTRA2, O43464
Chain of HTRA2, O43464 (O43464 355-458): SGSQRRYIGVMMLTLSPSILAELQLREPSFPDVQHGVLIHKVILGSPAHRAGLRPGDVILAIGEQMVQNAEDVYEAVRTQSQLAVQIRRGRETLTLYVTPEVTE

IL16_1, Q14005 = target: IL16_1, Q14005
Chain of IL16_1, Q14005 (Q14005 210-306): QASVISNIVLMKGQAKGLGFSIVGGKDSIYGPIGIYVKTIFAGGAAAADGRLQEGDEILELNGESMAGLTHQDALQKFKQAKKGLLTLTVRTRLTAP

IL16_3, Q14005 = target: IL16_3, Q14005
Chain of IL16_3, Q14005 (Q14005 1107-1207): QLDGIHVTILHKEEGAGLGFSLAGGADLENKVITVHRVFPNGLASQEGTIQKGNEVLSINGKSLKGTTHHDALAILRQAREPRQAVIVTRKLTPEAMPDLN

Inadl_8, Q8NI35 = target: Inadl_8, Q8NI35
Chain of Inadl_8, Q8NI35 (Q8NI35 1425-1530): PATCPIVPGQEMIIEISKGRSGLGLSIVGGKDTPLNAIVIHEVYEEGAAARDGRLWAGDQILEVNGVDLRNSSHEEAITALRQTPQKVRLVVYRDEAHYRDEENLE

LNX1_1, Q8TBB1 = target: LNX1_1, Q8TBB1
Chain of LNX1_1, Q8TBB1 (Q8TBB1 261-371): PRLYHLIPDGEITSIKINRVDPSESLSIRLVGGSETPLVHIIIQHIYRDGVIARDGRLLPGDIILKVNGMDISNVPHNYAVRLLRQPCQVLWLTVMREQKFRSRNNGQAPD

MAGI1_2, Q96QZ7 = target: MAGI1_2, Q96QZ7
Chain of MAGI1_2, Q96QZ7 (Q96QZ7 456-580): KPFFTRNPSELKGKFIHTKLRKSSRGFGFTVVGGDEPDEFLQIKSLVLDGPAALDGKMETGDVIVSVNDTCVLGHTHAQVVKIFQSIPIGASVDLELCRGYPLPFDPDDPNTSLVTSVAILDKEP

MPDZ_10, O75970 = target: T5, MPDZ_10, O75970
T5 sequence (O75970 1624-1722, limits assumed, looked up): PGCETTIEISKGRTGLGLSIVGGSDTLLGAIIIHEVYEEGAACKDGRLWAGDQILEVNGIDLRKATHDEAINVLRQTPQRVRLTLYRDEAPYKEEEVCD

MPDZ_5, O75970 = target: T6, MPDZ_5, O75970
T6 sequence (O75970 695-796, limits assumed, looked up): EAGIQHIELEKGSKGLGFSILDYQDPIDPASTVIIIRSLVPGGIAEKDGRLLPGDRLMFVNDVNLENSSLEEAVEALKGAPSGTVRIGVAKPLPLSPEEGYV

NHERF4_4, Q86UT5 = target: NHERF4_4, Q86UT5
Chain of NHERF4_4, Q86UT5 (Q86UT5 464-550): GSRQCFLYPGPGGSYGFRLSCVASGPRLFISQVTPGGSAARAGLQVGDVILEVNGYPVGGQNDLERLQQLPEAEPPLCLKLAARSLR

PDZD7_3, Q9H5P4 = target: T7, PDZD7_3, Q9H5P4
T7 sequence (Q9H5P4 857-944, limits assumed, looked up): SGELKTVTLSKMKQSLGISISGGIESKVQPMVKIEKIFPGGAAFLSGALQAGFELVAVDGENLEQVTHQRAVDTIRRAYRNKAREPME

PDZRN4_1, Q6ZMN7 = target: PDZRN4_1, Q6ZMN7
Chain of PDZRN4_1, Q6ZMN7 (Q6ZMN7 213-318): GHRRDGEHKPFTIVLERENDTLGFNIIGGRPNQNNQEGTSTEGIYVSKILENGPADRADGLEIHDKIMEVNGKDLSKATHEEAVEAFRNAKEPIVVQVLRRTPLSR

PTPN3, P26045 = target: PTPN3, P26045
Chain of PTPN3, P26045 (P26045 505-587): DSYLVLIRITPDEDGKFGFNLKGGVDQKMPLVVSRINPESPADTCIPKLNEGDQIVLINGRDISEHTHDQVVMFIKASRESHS

SNTG1, Q9NSN8 = target: T8, SNTG1, Q9NSN8
T8 sequence (Q9NSN8 52-150, limits assumed, looked up): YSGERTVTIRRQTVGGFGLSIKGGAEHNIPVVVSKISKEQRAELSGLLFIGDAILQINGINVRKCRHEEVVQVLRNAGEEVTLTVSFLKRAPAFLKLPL

SYNJ2BP, P57105 = target: T9, SYNJ2BP, P57105
T9 sequence (P57105 8-110, limits assumed, looked up): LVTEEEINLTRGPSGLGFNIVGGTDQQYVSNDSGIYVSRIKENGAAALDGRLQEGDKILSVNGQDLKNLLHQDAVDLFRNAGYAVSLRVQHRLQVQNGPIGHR

TJP1_2, Q07157 = target: TJP1_2, Q07157
Chain of TJP1_2, Q07157 (Q07157 181-274): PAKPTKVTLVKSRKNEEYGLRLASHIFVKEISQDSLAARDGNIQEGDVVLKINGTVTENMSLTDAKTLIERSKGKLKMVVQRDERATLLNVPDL

TX1BP3, O14907 = target: T10, TX1BP3, O14907
T10 sequence (O14907 10-122, limits assumed, looked up): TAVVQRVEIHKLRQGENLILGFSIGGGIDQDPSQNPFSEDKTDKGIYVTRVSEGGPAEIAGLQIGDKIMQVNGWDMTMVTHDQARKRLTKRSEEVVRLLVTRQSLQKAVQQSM

B1: ABCC4, O15439 (peptide)
chain: STLTIFETAL
For B1, the pKd (APBA2_2, Q99767) was “below the threshold”, the pKd (CASK, O14936) was “below the threshold” and the pKd (DFNB31_2, Q9P202) was “below the threshold”. The pKd (DLG3_1, Q92796) was 3.84, the pKd (DLG4_3, P78352) was 3.85 and the pKd (FRMPD2_3, Q68DX3) was “below the threshold”. For the same binder, the pKd (GORASP1, Q9BQQ3) was “below the threshold”, the pKd (GORASP2, Q9H8Y8) was 3.82 and the pKd (GRID2IP_1, A4D2P6) was 3.48. For the same binder, the pKd (GRIP1_3, Q9Y3R0) was “below the threshold”, the pKd (GRIP2_3, Q9C0E4) was “below the threshold” and the pKd (GRIP2_5, Q9C0E4) was “below the threshold”. The pKd (HTRA2, O43464) was 3.68, the pKd (IL16_1, Q14005) was 3.5 and the pKd (IL16_3, Q14005) was “below the threshold”. For the same binder, the pKd (Inadl_8, Q8NI35) was “below the threshold”, the pKd (LNX1_1, Q8TBB1) was 3.59 and the pKd (MAGI1_2, Q96QZ7) was 3.86. The pKd (MPDZ_10, O75970) was “below the threshold”, the pKd (MPDZ_5, O75970) was “below the threshold” and the pKd (NHERF4_4, Q86UT5) was 4.24. For the same binder, the pKd (PDZD7_3, Q9H5P4) was 5.27, the pKd (PDZRN4_1, Q6ZMN7) was 5.42 and the pKd (PTPN3, P26045) was 5.11. For the same binder, the pKd (SNTG1, Q9NSN8) was 4.89, the pKd (SYNJ2BP, P57105) was 5.56 and the pKd (TJP1_2, Q07157) was “below the threshold”. The pKd (TX1BP3, O14907) was 5.11.
